Test results published in IntAct's records for PubMed 26728129.

B1: Probable proton-coupled zinc antiporter SLC30A3 (Homo sapiens), Q99726 (parent)
chain: MEPSPAAGGLETTRLVSPRDRGGAGGSLRLKSLFTEPSEPLPEESKPVEMPFHHCHRDPLPPPGLTPERLHARRQLYAACAVCFVFMAGEVVGGYLAHSLAIMTDAAHLLADVGSMMGSLFSLWLSTRPATRTMTFGWHRSETLGALASVVSLWMVTGILLYLAFVRLLHSDYHIEGGAMLLTASIAVCANLLMAFVLHQAGPPHSHGSRGAEYAPLEEGPEEPLPLGNTSVRAAFVHVLGDLLQSFGVLAASILIYFKPQYKAADPISTFLFSICALGSTAPTLRDVLRILMEGTPRNVGFEPVRDTLLSVPGVRATHELHLWALTLTYHVASAHLAIDSTADPEAVLAEASSRLYSRFGFSSCTLQVEQYQPEMAQCLRCQEPPQA
partner: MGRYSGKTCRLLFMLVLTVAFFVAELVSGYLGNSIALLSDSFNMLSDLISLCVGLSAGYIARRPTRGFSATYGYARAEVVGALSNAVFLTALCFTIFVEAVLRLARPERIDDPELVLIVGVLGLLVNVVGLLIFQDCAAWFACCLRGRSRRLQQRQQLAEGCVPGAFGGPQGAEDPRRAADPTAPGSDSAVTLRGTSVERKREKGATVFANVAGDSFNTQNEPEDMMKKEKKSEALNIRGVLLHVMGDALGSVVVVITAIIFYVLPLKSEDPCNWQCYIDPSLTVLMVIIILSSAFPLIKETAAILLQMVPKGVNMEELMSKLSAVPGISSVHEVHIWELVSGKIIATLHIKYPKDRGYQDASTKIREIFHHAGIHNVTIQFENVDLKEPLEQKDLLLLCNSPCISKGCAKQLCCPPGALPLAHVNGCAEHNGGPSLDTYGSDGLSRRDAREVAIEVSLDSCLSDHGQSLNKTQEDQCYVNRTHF
B2: Calcium/manganese antiporter SLC30A10 (Homo sapiens), Q6XR72 (parent)
chain: B1 partner
partner: B1 chain
B3: Probable proton-coupled zinc antiporter SLC30A3 (Homo sapiens), Q99726 (parent)
chain: B1 chain
partner: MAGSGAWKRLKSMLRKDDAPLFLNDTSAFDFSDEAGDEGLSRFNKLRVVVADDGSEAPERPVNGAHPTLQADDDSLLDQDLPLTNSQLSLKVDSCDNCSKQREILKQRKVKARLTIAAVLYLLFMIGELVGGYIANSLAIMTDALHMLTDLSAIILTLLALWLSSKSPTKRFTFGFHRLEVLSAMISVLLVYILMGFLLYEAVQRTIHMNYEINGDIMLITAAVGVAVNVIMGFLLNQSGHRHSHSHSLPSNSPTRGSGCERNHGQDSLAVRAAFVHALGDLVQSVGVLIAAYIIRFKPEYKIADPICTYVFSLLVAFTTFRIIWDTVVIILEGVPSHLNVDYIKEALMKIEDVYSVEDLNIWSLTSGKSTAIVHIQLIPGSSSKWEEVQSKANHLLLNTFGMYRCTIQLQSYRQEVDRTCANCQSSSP

Variants of: B1
Details: with znt10_human SLC30A10, Q6XR72

Variant | effect of a mutation on the interaction
MEPSPAAGGLETTRLVSPRDRGGAGGSLRLKSLFTEPSEPLPEESKPVEMPFHHCHRDPLPPPGLTPERLHARRQLYAACAVCFVFMAGEVVGGYLAHSLAIMTDAAHLLADVGSMMGSLFSLWLSTRPATRTMTFGWHRSETLGALASVVSLWMVTGILLYLAFVRLLHSDYHIEGGAMLLTASIAVCANLLMAFVLHQAGPPHSHGSRGAEYAPLEEGPEEPLPLGNTSVRAAFVHVLGDLLQSFGVLAASILIYFKPQFKAADPISTFLFSICALGSTAPTLRDVLRILMEGTPRNVGFEPVRDTLLSVPGVRATHELHLWALTLTYHVASAHLAIDSTADPEAVLAEASSRLYSRFGFSSCTLQVEQYQPEMAQCLRCQEPPQA [Y262F] | decreasing interaction strength
MEPSPAAGGLETTRLVSPRDRGGAGGSLRLKSLFTEPSEPLPEESKPVEMPFHHCHRDPLPPPGLTPERLHARRQLYAACAVCFVFMAGEVVGGYLAHSLAIMTDAAHLLADVGSMMGSLFSLWLSTRPATRTMTFGWHRSETLGALASVVSLWMVTGILLYLAFVRLLHSDYHIEGGAMLLTASIAVCANLLMAFVLHQAGPPHSHGSRGAEYAPLEEGPEEPLPLGNTSVRAAFVHVLGDLLQSFGVLAASILIFFKPQYKAADPISTFLFSICALGSTAPTLRDVLRILMEGTPRNVGFEPVRDTLLSVPGVRATHELHLWALTLTYHVASAHLAIDSTADPEAVLAEASSRLYSRFGFSSCTLQVEQYQPEMAQCLRCQEPPQA [Y257F] | decreasing interaction strength

Variants of: B2
Details: with znt3_human SLC30A3, Q99726

Variant | effect of a mutation on the interaction
MGRFSGKTCRLLFMLVLTVAFFVAELVSGYLGNSIALLSDSFNMLSDLISLCVGLSAGYIARRPTRGFSATYGYARAEVVGALSNAVFLTALCFTIFVEAVLRLARPERIDDPELVLIVGVLGLLVNVVGLLIFQDCAAWFACCLRGRSRRLQQRQQLAEGCVPGAFGGPQGAEDPRRAADPTAPGSDSAVTLRGTSVERKREKGATVFANVAGDSFNTQNEPEDMMKKEKKSEALNIRGVLLHVMGDALGSVVVVITAIIFYVLPLKSEDPCNWQCYIDPSLTVLMVIIILSSAFPLIKETAAILLQMVPKGVNMEELMSKLSAVPGISSVHEVHIWELVSGKIIATLHIKYPKDRGYQDASTKIREIFHHAGIHNVTIQFENVDLKEPLEQKDLLLLCNSPCISKGCAKQLCCPPGALPLAHVNGCAEHNGGPSLDTYGSDGLSRRDAREVAIEVSLDSCLSDHGQSLNKTQEDQCYVNRTHF [Y4F] | decreasing interaction strength

Variants of: B3
Details: with znt4_human SLC30A4, O14863

Variant | effect of a mutation on the interaction
MEPSPAAGGLETTRLVSPRDRGGAGGSLRLKSLFTEPSEPLPEESKPVEMPFHHCHRDPLPPPGLTPERLHARRQLYAACAVCFVFMAGEVVGGYLAHSLAIMTDAAHLLADVGSMMGSLFSLWLSTRPATRTMTFGWHRSETLGALASVVSLWMVTGILLYLAFVRLLHSDYHIEGGAMLLTASIAVCANLLMAFVLHQAGPPHSHGSRGAEYAPLEEGPEEPLPLGNTSVRAAFVHVLGDLLQSFGVLAASILIYFKPQFKAADPISTFLFSICALGSTAPTLRDVLRILMEGTPRNVGFEPVRDTLLSVPGVRATHELHLWALTLTYHVASAHLAIDSTADPEAVLAEASSRLYSRFGFSSCTLQVEQYQPEMAQCLRCQEPPQA [Y262F] | decreasing interaction strength
MEPSPAAGGLETTRLVSPRDRGGAGGSLRLKSLFTEPSEPLPEESKPVEMPFHHCHRDPLPPPGLTPERLHARRQLYAACAVCFVFMAGEVVGGYLAHSLAIMTDAAHLLADVGSMMGSLFSLWLSTRPATRTMTFGWHRSETLGALASVVSLWMVTGILLYLAFVRLLHSDYHIEGGAMLLTASIAVCANLLMAFVLHQAGPPHSHGSRGAEYAPLEEGPEEPLPLGNTSVRAAFVHVLGDLLQSFGVLAASILIFFKPQYKAADPISTFLFSICALGSTAPTLRDVLRILMEGTPRNVGFEPVRDTLLSVPGVRATHELHLWALTLTYHVASAHLAIDSTADPEAVLAEASSRLYSRFGFSSCTLQVEQYQPEMAQCLRCQEPPQA [Y257F] | decreasing interaction strength
